US20220403009A1

Experiments:
[1] = target: SARS-CoV-1 spike protein on HIV-based pseudovirus (SARS-CoV) (UniProt P59594); assay: cell-based or functional assay
[2] = target: SARS-CoV-2 spike protein on pseudovirus (SARS-CoV-2) (UniProt P0DTC2); assay: cell-based or functional assay

Substance	Fold Over IgG1 (CoV-1) By Molar [1] [fold]	Fold Over IgG1 (CoV-1) By Weight [1] [fold]	IC50, SARS-CoV-1 pseudovirus neutralization [1] [µg/mL]	IC50, SARS-CoV-2 pseudovirus neutralization [2] [µg/mL]
CR3014 IgG1 (antibody)	1	1	0.068	> 100000
CR3014 IgM + J (antibody)	> 80	> 13	< 0.0051	> 100000
